Data: the supplement of paper PMC12338614
± gives the uncertainty stated by the source.

B1: library; numbered along this chain (parent)
chain: MEVVDPQQLGMFTEGELMSVGMDTFIHRIDSTEVIYQPRRKRAKLIGKYLMGDLLGEGSYGKVKEVLDSETLCRRAVKILKKKKLRRIPNGEANVKKEIQLLRRLRHKNVIQLVDVLYNEEKQKMYMVMEYCVCGMQEMLDSVPEKRFPVCQAHGYFCQLIDGLEYLHSQGIVHKDIKPGNLLLTTGGTLKISDLGVAEALHPFAADDTCRTSQGSPAFQPPEIANGLDTFSGFKVDIWSAGVTLYNITTGLYPFEGDNIYKLFENIGKGSYAIPGDCGPPLSDLLKGMLEYEPAKRFSIRQIRQHSWFRKKHPPAEAPVPIPPSPDTKDRWRSMTVVPYLEDLHGADEDEDLFDIEDDIIYTQDFTVPGQVPEEEASHNGQRRGLPKAVCMNGTEAAQLSTKSRAEGRAPNPARKACSASSKIRRLSACKQQ

Variants of: B1
Test: STK11 functional score (HeLa growth suppression), rescaled enrichment; synonymous median = 1, nonsense median = 0 (normalised score)
Conditions: with HeLa; variant type: missense
Protocol: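 Deep mutational scan (TileSeq/POPCode codon randomisation) of full-length codon-optimised STK11 cDNA integrated at a Bxb1 landing pad (AAVS1) in HeLa cells. Restoring functional STK11 suppresses HeLa proliferation. Variant frequencies were measured by NGS before and after about two weeks of growth. The error-corrected enrichment log-ratio was rescaled so that synonymous median = 1 and nonsense median = 0, scores above 1 were compressed, and codon-level and three biological replicate scores were combined; error is the bootstrapped standard error. Scale: synonymous median = 1, nonsense median = 0; below 0.5 = damaging.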

Row | Variant | STK11 functional score
1 | V116A | 0.197 ± 0.13
2 | V116I | 0.327 ± 0.24
3 | E407V | 1.38 ± 0.25
4 | I361F | 0.984 ± 0.13
5 | I361T | 1.58 ± 0.47
6 | I361W | 1.62 ± 0.16
7 | A200V | 0.901 ± 0.23
8 | G56Q | -0.0947 ± 0.16
9 | P411G | 1.14 ± 0.49
10 | T336W | 1.64 ± 0.15
11 | T336N | 0.774 ± 0.2
12 | T336M | 0.732 ± 0.077
13 | G268H | 1.15 ± 0.61
14 | L50M | 0.814 ± 0.23
15 | C151V | 1.17 ± 0.39
16 | C151N | 0.808 ± 0.43
17 | G215I | 0.938 ± 0.11
18 | G215V | 0.788 ± 0.16
19 | P149L | 0.561 ± 0.1
20 | P149C | 0.957 ± 0.33
21 | R104K | 1.31 ± 0.67
22 | N90S | 1.21 ± 0.14
23 | F148L | 0.829 ± 0.095
24 | L140H | -0.0286 ± 0.083

Row | Variant | STK11 functional score
25 | N380R | 1.56 ± 0.24
26 | T363L | 1.17 ± 0.15
27 | T363S | 1.34 ± 0.17
28 | G381V | 0.684 ± 0.15
29 | G381M | 1.57 ± 0.29
30 | Y362E | 0.99 ± 0.45
31 | Y362H | 1.44 ± 0.13
32 | V243F | 0.591 ± 0.095
33 | V243N | 0.56 ± 0.19
34 | E396Y | 1.23 ± 0.21
35 | E396G | 1.55 ± 0.14
36 | E396F | 1.41 ± 0.2
37 | E396N | 1.49 ± 0.1
38 | E396V | 1.55 ± 0.28
39 | S299W | 1.24 ± 0.14
40 | S299A | 1.42 ± 0.15
41 | N119E | 0.994 ± 0.093
42 | T71V | 1.04 ± 0.34
43 | S142G | 1.62 ± 0.16
44 | K262P | 1.56 ± 0.25
45 | D358N | 0.776 ± 0.53
46 | Q152L | 0.195 ± 0.69
47 | I360W | 0.807 ± 0.13
48 | L201G | 0.745 ± 0.38

Row | Variant | STK11 functional score
49 | Y261S | 0.699 ± 0.16
50 | K96P | 0.38 ± 0.12
51 | K84C | 1.68 ± 0.42
52 | A429Q | 1.56 ± 0.36
53 | S325H | 1.54 ± 0.32
54 | V95R | 1.02 ± 0.16
55 | R211A | 1.28 ± 0.14
56 | L72G | 1.44 ± 0.23
57 | L72T | 1.44 ± 0.48
58 | L72Q | 1.26 ± 0.14
59 | E145T | 1.54 ± 0.17
60 | S216L | 0.0797 ± 0.09
61 | S216Y | -0.11 ± 0.12
62 | K388F | 1.24 ± 0.4
63 | D229P | 1.68 ± 0.15
64 | V66P | 0.219 ± 0.12
65 | Y253V | 1.56 ± 0.22
66 | H379A | 1.38 ± 0.37
67 | S401I | 1.49 ± 0.15
68 | T13K | 0.0631 ± 0.2
69 | I224W | 1.3 ± 0.41
70 | I224K | 1.19 ± 0.26
71 | T186F | 1.33 ± 0.17
72 | T186P | 1.52 ± 0.33

Row | Variant | STK11 functional score
73 | S283P | 1.15 ± 0.37
74 | S283E | 0.826 ± 0.5
75 | Y60S | 1.48 ± 0.25
76 | F298E | -0.101 ± 0.11
77 | T212M | 0.927 ± 0.094
78 | T212H | 1.59 ± 0.41
79 | N266V | 0.844 ± 0.18
80 | N94S | 1.27 ± 0.34
81 | N94H | 1.35 ± 0.3
82 | Q399L | 1.31 ± 0.25
83 | Q399A | 1.11 ± 0.58
84 | G242E | 0.274 ± 0.12
85 | L228R | 1.68 ± 0.26
86 | N181R | -0.0333 ± 0.096
87 | N181G | 0.0242 ± 0.078
88 | N247H | 1.26 ± 0.26
89 | N247C | 1.15 ± 0.4
90 | K269T | 1.47 ± 0.2
91 | K269A | 0.886 ± 0.2
92 | K82R | 1.66 ± 0.4
93 | K82I | 1.3 ± 0.54
94 | K82V | 0.966 ± 0.26
95 | V197R | 1 ± 0.12
96 | K175Q | 1.19 ± 0.2

Row | Variant | STK11 functional score
97 | C418L | 1.46 ± 0.13
98 | R304S | 0.843 ± 0.6
99 | L195S | 0.972 ± 0.13
100 | R74I | 1.15 ± 0.12
101 | P217G | 1.53 ± 0.18
102 | A377P | 1.4 ± 0.38
103 | Y36R | 1.3 ± 0.59
104 | L183P | 0.221 ± 0.35
105 | T395Y | 1.47 ± 0.23
106 | Q432Y | 1.63 ± 0.28
107 | N226H | 0.561 ± 0.47
108 | G385W | 1.28 ± 0.14
109 | D343W | 1.55 ± 0.14
110 | D343F | 1.32 ± 0.39
111 | P323T | 1.32 ± 0.24
112 | P323C | 1.28 ± 0.5
113 | P323G | 1.13 ± 0.11
114 | P323N | 1.53 ± 0.15
115 | R103G | 0.667 ± 0.098
116 | R103E | 1.68 ± 0.18
117 | G251V | -0.0264 ± 0.098
118 | Q123E | 1.15 ± 0.23
119 | Q123G | 0.98 ± 0.27
120 | P314I | 1.5 ± 0.15

Row | Variant | STK11 functional score
121 | P314S | 1.33 ± 0.16
122 | L101Q | 0.894 ± 1
123 | Q137G | 0.734 ± 0.14
124 | C132T | 1.52 ± 0.24
125 | C132V | 0.601 ± 0.22
126 | H202T | 0.925 ± 0.22
127 | E121G | 1.18 ± 0.26
128 | G276T | 1.16 ± 0.21
129 | G270I | 0.821 ± 0.36
130 | G270M | 0.994 ± 0.46
131 | G270C | 1.41 ± 0.31
132 | G270N | 1.4 ± 0.35
133 | I35M | 0.908 ± 0.52
134 | E375C | 1.31 ± 0.31
135 | T189G | 0.924 ± 0.71
136 | D5H | 1.13 ± 0.53
137 | D30S | 1.7 ± 0.19
138 | L54W | 0.575 ± 0.083
139 | L54I | 0.71 ± 0.19
140 | L54K | 1.61 ± 0.23
141 | T185S | 0.939 ± 0.26
142 | G61E | 0.195 ± 0.23
143 | E165R | 1.18 ± 0.59
144 | I88M | 0.899 ± 0.094

Row | Variant | STK11 functional score
145 | R333D | 1.62 ± 0.25
146 | Y340K | 1.6 ± 0.14
147 | I161Y | 0.129 ± 0.091
148 | I161V | 0.514 ± 0.39
149 | I161F | -0.101 ± 0.25
150 | Q371Y | 1.04 ± 0.54
151 | Q371W | 0.748 ± 0.14
152 | Q371C | 1.36 ± 0.37
153 | V77T | 1.57 ± 0.19
154 | I274V | 0.7 ± 0.15
155 | L55C | 1.43 ± 0.52
156 | L102A | 0.777 ± 0.23
157 | L102S | 0.447 ± 0.3
158 | E33Y | 1.21 ± 0.2
159 | F231E | 1.24 ± 0.3
160 | F231P | 0.959 ± 0.34
161 | F231H | 0.765 ± 0.42
162 | R383D | 1.49 ± 0.32
163 | Y292M | 1.64 ± 0.31
164 | P373L | 1.13 ± 0.38
165 | P373Q | 1.55 ± 0.27
166 | P373W | 1.6 ± 0.2
167 | V20I | 1.22 ± 0.31
